Data as given in publication PMC9375587.

Target: Myeloperoxidase (MPO), native, dimeric (human) (UniProt P05164)
Assay: SPR

B1: Ceruloplasmin (CP), intact (non-proteolyzed) (natural protein)
chain: KEKHYYIGIIETTWDYASDHGEKKLISVDTEHSNIYLQNGPDRIGRLYKKALYLQYTDETFRTTIEKPVWLGFLGPIIKAETGDKVYVHLKNLASRPYTFHSHGITYYKEHEGAIYPDNTTDFQRADDKVYPGEQYTYMLLATEEQSPGEGDGNCVTRIYHSHIDAPKDIASGLIGPLIICKKDSLDKEKEKHIDREFVVMFSVVDENFSWYLEDNIKTYCSEPEKVDKDNEDFQESNRMYSVNGYTFGSLPGLSMCAEDRVKWYLFGMGNEVDVHAAFFHGQALTNKNYRIDTINLFPATLFDAYMVAQNPGEWMLSCQNLNHLKAGLQAFFQVQECNKSSSKDNIRGKHVRHYYIAAEEIIWNYAPSGIDIFTKENLTAPGSDSAVFFEQGTTRIGGSYKKLVYREYTDASFTNRKERGPEEEHLGILGPVIWAEVGDTIRVTFHNKGAYPLSIEPIGVRFNKNNEGTYYSPNYNPQSRSVPPSASHVAPTETFTYEWTVPKEVGPTNADPVCLAKMYYSAVEPTKDIFTGLIGPMKICKKGSLHANGRQKDVDKEFYLFPTVFDENESLLLEDNIRMFTTAPDQVDKEDEDFQESNKMHSMNGFMYGNQPGLTMCKGDSVVWYLFSAGNEADVHGIYFSGNTYLWRGERRDTANLFPQTSLTLHMWPDTEGTFNVECLTTDHYTGGMKQKYTVNQCRRQSEDSTFYLGERTYYIAAVEVEWDYSPQREWEKELHHLQEQNVSNAFLDKGEFYIGSKYKKVVYRQYTDSTFRVPVERKAEEEHLGILGPQLHADVGDKVKIIFKNMATRPYSIHAHGVQTESSTVTPTLPGETLTYVWKIPERSGAGTEDSACIPWAYYSTVDQVKDLYSGLIGPLIVCRRPYLKVFNPRRKLEFALLFLVFDENESWYLDDNIKTYSDHPEKVNKDDEEFIESNKMHAINGRMFGNLQGLTMHVGDEVNWYLMGMGNEIDLHTVHFHGHSFQYKHRGVYSSDVFDIFPGTYQTLEMFPRTPGIWLLHCHVTDHIHAGMETTYTVLQNEDTKSG
Kd: 436 nM | koff: 0.503 s⁻¹ | kon: 11500 M⁻¹ s⁻¹
